One substance from publication PMC2759517 can be followed below.

One may read the IC50 as the concentration that gives 50% inhibition. High values mean weaker potency in that assay, low ones greater potency in that assay.

The target of this experiment is HA-tagged PA of FluA (Influenza A virus). The experiment in a line: ELISA. (In general: An ELISA detects its analyte on a solid surface through an enzyme-linked reagent.)

soluble wild-type PB1_(1–25)A peptide (non-biotinylated competitor), sequence (A4GCI3 1-25): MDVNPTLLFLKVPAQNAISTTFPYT

Regarding “soluble wild-type PB1_(1–25)A peptide (non-biotinylated competitor)”, the IC50 amounted to 1.8 nM.
